For data set [1], the target named is T1, IFIT5 (Homo sapiens, UniProt Q13325 1-482).
T1 sequence: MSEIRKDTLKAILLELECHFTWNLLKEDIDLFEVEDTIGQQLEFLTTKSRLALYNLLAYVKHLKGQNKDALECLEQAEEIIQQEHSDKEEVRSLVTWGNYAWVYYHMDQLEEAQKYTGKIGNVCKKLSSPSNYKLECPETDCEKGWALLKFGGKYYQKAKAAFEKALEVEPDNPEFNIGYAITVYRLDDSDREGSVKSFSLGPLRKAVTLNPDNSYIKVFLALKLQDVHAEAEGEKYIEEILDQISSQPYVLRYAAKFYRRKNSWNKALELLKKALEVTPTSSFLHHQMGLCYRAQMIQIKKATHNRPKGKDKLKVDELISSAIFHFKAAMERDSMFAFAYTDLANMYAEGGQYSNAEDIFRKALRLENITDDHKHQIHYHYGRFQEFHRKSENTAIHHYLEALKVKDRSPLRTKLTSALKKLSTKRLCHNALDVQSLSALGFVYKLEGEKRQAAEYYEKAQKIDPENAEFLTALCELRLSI
The data set can be described thus: crystal structure 2.0 A.

The target of data set [2] is T1, IFIT5. Description: crystal structure 1.86 A.
Data set [3] concerns the target T1, IFIT5. The data set can be described thus: EMSA.
The target in a further data set is T2, IFIT3 (Homo sapiens, UniProt O14879 1-490).
T2 sequence: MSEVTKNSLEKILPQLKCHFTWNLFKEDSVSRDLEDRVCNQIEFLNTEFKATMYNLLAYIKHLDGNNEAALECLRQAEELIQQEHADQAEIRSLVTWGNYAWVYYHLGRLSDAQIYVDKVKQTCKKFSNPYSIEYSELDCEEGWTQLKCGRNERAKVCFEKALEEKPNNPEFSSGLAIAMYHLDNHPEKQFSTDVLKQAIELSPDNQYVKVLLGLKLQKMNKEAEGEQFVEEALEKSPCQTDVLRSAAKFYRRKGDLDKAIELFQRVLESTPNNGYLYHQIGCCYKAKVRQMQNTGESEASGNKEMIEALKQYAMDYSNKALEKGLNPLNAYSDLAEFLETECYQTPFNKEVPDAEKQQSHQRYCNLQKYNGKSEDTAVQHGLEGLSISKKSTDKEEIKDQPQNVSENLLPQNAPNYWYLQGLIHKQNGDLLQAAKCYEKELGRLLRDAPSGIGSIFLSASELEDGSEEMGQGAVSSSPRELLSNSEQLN
The data set can be described thus: EMSA. For orientation: In EMSA bound probe runs differently from free probe, usually more slowly.

A further data set concerns the target T3, IFIT1 (Homo sapiens, UniProt P09914 1-478).
T3 sequence: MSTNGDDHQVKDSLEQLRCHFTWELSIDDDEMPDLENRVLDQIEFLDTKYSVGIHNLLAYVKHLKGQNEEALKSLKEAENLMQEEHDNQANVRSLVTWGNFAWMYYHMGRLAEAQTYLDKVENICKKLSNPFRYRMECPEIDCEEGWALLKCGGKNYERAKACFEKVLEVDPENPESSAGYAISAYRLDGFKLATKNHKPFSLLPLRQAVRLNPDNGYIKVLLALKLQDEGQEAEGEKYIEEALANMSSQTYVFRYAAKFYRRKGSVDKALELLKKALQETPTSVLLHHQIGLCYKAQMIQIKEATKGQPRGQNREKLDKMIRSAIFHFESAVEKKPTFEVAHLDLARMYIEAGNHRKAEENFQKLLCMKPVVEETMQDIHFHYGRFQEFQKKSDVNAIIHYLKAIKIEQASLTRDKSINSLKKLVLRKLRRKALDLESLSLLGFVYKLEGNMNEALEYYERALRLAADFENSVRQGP
Description: EMSA.

For data set [4], the target named is T1, IFIT5. Description: crystal structure 2.5 A.

In the case of UUU (ssRNA, 5'-triphosphate) [PPP-oligo-U], the binding result with IFIT5 [1] is on record as “binds”. For CCCC (ssRNA, 5'-triphosphate) [PPP-oligo-C], in the data set with IFIT5 [2], the binding result is listed as “binds”.

B1: PPP-3nt (dsRNA)
RNA 1: GGGAGAGAGAGAGAGAGAGUAAGGGCGUCGUCGCCCCGAGAAUU
RNA 2: ACUCUCUCUCUCUCUCU
modifications: 5'-triphosphate on strand 1
Regarding B1, the binding result with IFIT5 [3] is listed as “binds”; with IFIT3, “no binding”.

B2: PPP-5nt (dsRNA)
RNA 1: GGGAGAGAGAGAGAGAGAGUAAGGGCGUCGUCGCCCCGAGAAUU
RNA 2: ACUCUCUCUCUCUCU
modifications: 5'-triphosphate on strand 1
Turning to B2, the binding result with IFIT1 is given as “binds”. GGGAGAGAGAGAGAGAGAGUAAGGGCGUCGUCGCCCCGAGAAUU (ssRNA, 5'-triphosphate) [PPP-ss (44nt PPP-ssRNA)]: the binding result is “binds” with IFIT5 [3], “no binding” with IFIT3 and “binds” with IFIT1. As for AAAA (ssRNA, 5'-triphosphate) [PPP-oligo-A], the binding result with IFIT5 [4] is on record as “binds”.

The record behind these values is article PMC4931921.
